The target of assay [1] is T1, SARS-CoV-2 spike protein receptor binding domain (RBD2) (SARS-CoV-2, UniProt P0DTC2 319-537). Nature of the assay: flow cytometry, yeast-expressed scFv.
Assay [2] concerns the target T1, SARS-CoV-2 spike protein receptor …. Nature of the assay: flow cytometry, yeast-displayed scFv.
Assay [3] shares this target.
Assay [4] has the same target. Nature of the assay: flow cytometry, yeast-displayed scFv, titration of biotinylated antigen.
Assay [5] shares this target. This is another data set of the same source.
Assay [6] addresses T2, SARS-CoV spike protein receptor binding domain (RBD1) (SARS-CoV, UniProt P59594 306-527). Nature of the assay: plate immunoassay on immobilized antigen, PE-labelled anti-rabbit/anti-human.
For assay [7], the target named is T1, SARS-CoV-2 spike protein receptor …. The source holds these as a separate data set.
Assay [8] shares this target. This is another data set of the same source.
Assay [9] addresses T2, SARS-CoV spike protein receptor binding …. Nature of the assay: ELISA, crude rabbit minibody.

Residue numbers refer to the chain shown, from its start. Where “and” joins values, the source holds several entries; their conditions need not be identical. Equal entries are not always repeated. Where two headings read alike, the source gives them in different places.

B1: R09 scFv (scFv)
scFv: QPGLTQPPSVSVSPGQTASITCSGDKLGYKYVSWYQQKPGQSPVLVIYEDTKRPSGIPKRFSGSNSGNTATLTICGTQAVDEADYYCQAWDSSVVFGGGTKLTVLSGGSTITSYNVYDTKLSSSGTQVQLVQSGAEVKKPGASVKVSCKASGYTFTSYGISWVRQAPGQGLEWMGWISAYNGNTNYAQKFQGRVTMTTDTSTSTAYMELRSLRSDDTAVYYCARDMELRPPFDYWGQGTLVTVSS
With B1, in assay [1], the dissociation constant Kd is 4820 nM.

B2: B04 scFv (scFv)
scFv: SYVLTQPPSVSVAPGKTARITCGGNNIGIRSVHWYQQKPGQAPVLVIYYDSDRPSGIPERFSGSKSGNTATLTISRVEAGDEADYYCQVWDSSSDHPVFGGGTKLTVLSGGSTITSYNVYYTKLSSSGTQVQLVESGAEVKKPGASVKVSCKASGYTFTRYYMHWVRQAPGQGLEWMGIINPSGGTTSYAQKFQGRVTMTRDTSTSTVYMELSSLRSEDTAVYYCARSFGELTSFDYWGQGTLVTVSS
Turning to B2, the Kd in assay [2], in [3] and in [4] was 13.9 nM in each case.

B3: F07 scFv (scFv)
scFv: SYVLTQPPSVSVAPGQTARITCGGNNIGSKSVHWYQQKPGQAPVLVVYDDSDRPSGIPERFSGSNSGNTATLIISRVEAGDEADYYCQVWDSSSVHYVFGTGTKLTVLSGGSTITSYNVYYTKLSSSGTQVQLVQSGAEVKKPGSSVRVSCKVSGYTFTGYYMHWVRQAPGQGLEWMGIINPSGGSTSYAQKFQGRVTMTRDTSTSTVYMELSSLRSEDTAVYYCARVRVGASDAFDIWGQGTMVTVSS
Consider B3, for which the Kd was determined as 67.5 nM in [2], 67.5 nM in assay [5], 67.5 nM in assay [4] and 280 nM in assay [1].

B4: F07 rabbit minibody (scFv-rabbit Fc) (Fc fusion)
chain: B3 scFv
As for B4, the binding result in [6] was “no binding”.

B5: F07 human minibody (scFv-human Fc) (Fc fusion)
chain: B3 scFv
On to B5, for which the binding result in assay [6] is reported as “no binding”.

B6: E07 scFv (scFv)
scFv: B3 scFv
For the molecule B6, the Kd in assay [1] amounted to 436 nM.

B7: H05 scFv (scFv)
scFv: SYVLTQPPSVSVAPGQTARITCGANNIGRISVHWYQQKPGQAPVLVVYDDSDRPSGIPERFSGSNFGNTATLTISRVEAGDEADYYCQVWDSYSDHVIFGGGTKLTVLSGGSTITSYNVYYTKLSSSGTQVQLVQSGAEVKKPGSSVKVSCKASGGTFSSYAISWVRQAPGQGLEWMGGIIPIFGTANYAQKFQGRVTITADESTSTAYMELSSLRSEDTAVYYCARSIFGVVIISHADGYYYGMDVWGQGTTVTVSS
notes: also called H5
Regarding B7, the Kd in [2], in assay [7] and in assay [4] was 16.7 nM each time.

B8: G07 scFv (scFv)
scFv: QSVLIQPPSASGTPGQRVTISCSGSNSNFGSNSVSWYQQRPGTAPKLLIEGNNQRPSGVPERFSGSKSGTSASLAISGLQSEDEAEYSCASWDDSLNAFVFGPGTKLTVLSGGSAITSYNVYYTKLSSSGTQVQLVQSGAEVKKPGESLKISCKGSGYSFTSYWIGWVRQMPGKGLEWMGIIYPGDSDIRYSPSFQGQVTISADKSFSSAYLQWSSLKASDTAMYYCARLGATGAFDIWGQGTTVTVSS
For the molecule B8, the equilibrium dissociation constant (Kd) stood at 60.3 nM in assay [2], 60.4 nM in [7] and 60.3 nM in assay [4].

B9: D04 scFv (scFv)
scFv: SYVLTQPPSVSVAPGKTARITCGGNNIGWKSVHWYQQKPGQAPVLVVYNDNDRPSGVPERFSGSNSGNTATLTISRVVAGDEADYYCQVWDSSSDHVLFGGGTKLTVLSGGSTITSYNVYYTKLSSSGTQVQLVQSGAEVKKPGSSVKVSCKASGGTFSSYAISWVRQAPGQGLEWMGGIIPIFGTANYAQKFQGRVTITADESTSTAYMELSSLRSEDTAVYYCARASGRWLQFWHYYGMDVWGQGTTVTVS
On to B9, for which the dissociation constant (Kd) in assay [3] and in [4] was 33 nM each time.

B10: E01 scFv (scFv)
scFv: SYELTQPPSVSVAPGETARITCGGDNIGRRHVHWYQQKPGQAPVLVIYDDSDRPSGIPDRFSGSNSGNTATLTIGRVEAGDEADYYCQVWGSSNDPHVFGTGTKLTVLSGGSTITSNNVYYTKLSSSGTQVQLQQWGAGLLKPSETLSLKCAVYGGSFSGYYWGWIRQSTGKGLEWIGEINRSGSTNYNPSLKSRVTISVDTSKNQFSLKLSSVTAADTAVYYCARGGARYYYGSGSYRSTPRPYYFDYWGQGTLVTVSS
notes: also called E1
On to B10, for which the Kd in [2] came to 13.9 nM; in assay [5], 13.9 nM; in assay [4] it was 13.9 nM; in assay [1], 16.1 nM.

B11: E01 rabbit minibody (scFv-rabbit Fc) (Fc fusion)
scFv-Fc: B10 scFv
In the case of B11, the binding result in [6] is “no binding”.

B12: R26 scFv (scFv)
scFv: SYELTQPPSVSVAPGQTATITCGGKNIESKSVHWYQQKPGQAPVLVVSDDTDRASGIPERFSGSNSGGAATLTISRVEAGDEADYYCQVWDSPSDHYVFGPGTKLTVLSGGSTITSYNVYYTKLSSSGTQVQLVESGGGVVQPGRSLRLSCAASGFTFSSYAMHWVRQAPGKGLEWVAVISYDGSNKYYADSVKGRFTISRDKAKNTLYLQMNSLRGEDTAVYYCARELSYYDSSGYLRGDWYFDLWGRGTLVTVSS
For B12, the Kd in assay [8] and in assay [4] was 65.3 nM throughout.

B13: R26 rabbit minibody (scFv-rabbit Fc) (Fc fusion)
scFv-Fc: B12 scFv
With B13, the binding result in assay [9] is listed as “no binding”.

B14: S01 rabbit minibody (scFv-rabbit Fc) (Fc fusion)
chain: EIVMTQSPSSLSASVGDSVTITCQASQDISNYLNWYQQKPGKAPKLLIYDASNLETGVPSRFSGGGSGTDFTLTITSLQPEDIATYYCQQYDNFPPTFGPGTKVDIKSGGSTITSYNVYYTKLSSSDTQVQLVESGGGLVKPGGSLRLSCAASGFTVGSNYMSWVRQAPGKGLEWVSVIYSGGSTYYADSVKGRFTISRDNSKNTLYLQMNSLRAEDTAVYYCARGSSGAWYFDLWGRGTLVTVSS
Take B14: the binding result in assay [6] is given as “no binding”.

B15: S01 human minibody (scFv-human Fc) (Fc fusion)
chain: B14 chain
As to B15, the binding result in [6] was “no binding”.

B16: D07 scFv (scFv)
scFv: SYELTQPPSVSVAPGETARMTCGGNNIGTKGVHWYQQKPGQAPVLVVYDDSDRPSGIPERFSGSNAGNTATLTISRVEAGDEADYYCQVWDSRSDQYVFGTRTKLTVLSGGSTITSYNVYYTKLSSSGAQVTLKESGPVLVKPTETLTLTCTVSGFSLSNARMGVSWIRQPPGKALEWLAHIFSNGEKSYSTSLKSRLTISKDTSKSQVVLTMTNMDPVDTATYYCARTLDYYDSSGYLVGGAFDIWGQGTMVTVSS
For the molecule B16, the Kd in assay [3] is 113 nM and 138 nM; in assay [4] it was 113 nM; in [1], 268 nM.

B17: H01 scFv (scFv)
scFv: B16 scFv with S1Q, Y2P, E3G, V12L, E16Q, M20I, T29S, G31S
notes: also called H1
As to B17, the Kd in assay [2], in assay [7] and in assay [4] was 66.4 nM throughout.

(Values after patent US12018066 (TRIAD NATIONAL SECURITY, dated 2024).)
